Data: paper PMC4315244 (The Journal of Cell Biology, 2015)

How the values were obtained:
SEC-MALS = target: the molecule itself; assay: SEC-MALS
Nup82 (of the …) = target: Nup82 (of the Nup82–Nup159tail–Flag-Nsp1C complex) (S. cerevisiae, UniProt P40368 1-713); assay: SEC-MALS
Nup82-Flag-TEV-ProtA = Nup82-Flag-TEV-ProtA (S. cerevisiae, UniProt P40368 1-713); assay: quantitative targeted mass spectrometry
AUC + SEC = target: the molecule itself; assay: AUC + SEC

Nup82-Flag-TEV-ProtA, sequence (P40368 whole entry): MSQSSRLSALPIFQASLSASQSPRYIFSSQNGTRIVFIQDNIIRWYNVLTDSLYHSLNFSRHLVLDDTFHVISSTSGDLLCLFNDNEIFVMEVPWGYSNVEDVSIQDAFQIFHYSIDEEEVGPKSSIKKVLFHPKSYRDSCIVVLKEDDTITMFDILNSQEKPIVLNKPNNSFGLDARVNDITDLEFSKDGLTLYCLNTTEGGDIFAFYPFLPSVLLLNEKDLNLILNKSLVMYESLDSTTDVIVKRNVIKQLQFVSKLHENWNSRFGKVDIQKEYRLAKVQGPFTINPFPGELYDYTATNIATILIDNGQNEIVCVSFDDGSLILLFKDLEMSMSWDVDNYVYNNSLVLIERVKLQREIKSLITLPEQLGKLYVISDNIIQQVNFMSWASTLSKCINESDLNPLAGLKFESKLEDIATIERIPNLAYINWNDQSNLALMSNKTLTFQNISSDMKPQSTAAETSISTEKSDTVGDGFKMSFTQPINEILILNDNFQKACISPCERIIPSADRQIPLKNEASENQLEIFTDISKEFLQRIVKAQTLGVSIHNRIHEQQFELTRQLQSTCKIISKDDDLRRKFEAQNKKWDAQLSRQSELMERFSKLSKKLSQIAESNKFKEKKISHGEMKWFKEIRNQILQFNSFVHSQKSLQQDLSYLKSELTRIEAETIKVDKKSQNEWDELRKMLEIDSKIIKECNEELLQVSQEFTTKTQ
Nup82 (of the Nup82–Nup159tail–Flag-Nsp1C complex), sequence (P40368 whole entry, one chain of several): as the sequence (P40368 whole entry) above

B1: Nup159-QT4–5-Linker-H1 (domain or fragment, S. cerevisiae, UniProt P40477 1150-1244, looked up)
chain: VKKEAVDNGLQTEPVETCNFSVQTFEGDENYLAEQCKPKQLKEYYTSAKVSNIPFVSQNSTLRLIESTFQTVEAEFTVLMENIRNMDTFFTDQSS
With B1 the “stoichiometry N” value (SEC-MALS) was 4.

B2: Flag-Nsp1C (domain or fragment)
chain: not shown
With B2 the “stoichiometry N” value (Nup82 (of the …)) was 1.

B3: Nup159C (domain or fragment, S. cerevisiae, UniProt P40477 1082-1460, looked up)
chain: EDINTDELPHGGEAFKAREVSASADFDVQTSLEDNYAESGIQTDLSESSKENEVQTDAIPVKHNSTQTVKKEAVDNGLQTEPVETCNFSVQTFEGDENYLAEQCKPKQLKEYYTSAKVSNIPFVSQNSTLRLIESTFQTVEAEFTVLMENIRNMDTFFTDQSSIPLVKRTVRSINNLYTWRIPEAEILLNIQNNIKCEQMQITNANIQDLKEKVTDYVRKDIAQITEDVANAKEEYLFLMHFDDASSGYVKDLSTHQFRMQKTLRQKLFDVSAKINHTEELLNILKLFTVKNKRLDDNPLVAKLAKESLARDGLLKEIKLLREQVSRLQLEEKGKKASSFDASSSITKDMKGFKVVEVGLAMNTKKQIGDFFKNLNMAK
With B3 the “stoichiometry N” value (Nup82-Flag-TEV-ProtA) was 1 and the “stoichiometry N” value (AUC + SEC) was 2.

B4: Nsp1C (domain or fragment)
chain: not shown
In the case of B4, the “stoichiometry N” value (Nup82-Flag-TEV-ProtA) is reported as 1.
